Laboratory results reported in patent publication KR20180095349A (dated 2018).

Each binder was assayed against T1, VEGF 항원 단백질 (VEGF-His) (UniProt P15692-4 27-191, limits assumed) (assay: ELISA on plate-coated VEGF-His (100 ng/well), IgG diluted 1/2 from 50 nM, anti-human Fc-HRP, fit in GraphPad Prism).
T1 construct: Expressed from pN293-VEGF in HEK293F cells, purified on Ni-NTA and by gel filtration; also called 혈관 내피세포 성장인자
T1 sequence: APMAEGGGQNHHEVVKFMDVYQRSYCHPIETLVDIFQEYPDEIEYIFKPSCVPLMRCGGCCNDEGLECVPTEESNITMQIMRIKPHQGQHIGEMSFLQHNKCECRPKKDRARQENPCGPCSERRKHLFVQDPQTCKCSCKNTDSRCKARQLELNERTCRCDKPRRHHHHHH

| Kd [pM] | Binder |
| --- | --- |
| 25 | 항-VEGF 단일클론 인간항체 4C4 (IgG형) (antibody, V domains shown) VH: QVQLVQSGAEVKKPGSSVKVSCKASGGTFSSSAFSWVRQAPGHGLEWMGRIIPMFDMTDYAQRFQGRLTIIADESSSTAYMELSSLRSEDTAVYYCARYKSGSYGMDVWGQGTTVTVSS VL: NFMLTQPASVSGSPGQSITISCTGSSSDVGGYNYVSWYQQHPGKAPQLIIYDVTKRPSGVSNRFSGSKSGNSASLTISGLQAEDEADYYCSSYSSSTFYVFGTGTKVTVL |
| 60 | 항-VEGF 단일클론 인간항체 3H1 (IgG형) (antibody, V domains shown) VH: QVQLVESGGGLVKPGGSLRLSCAASGFIFSRYGMNWVRQAPGKGLEWVSSISGSSNYRYYADSVKGRFTISRDNAKNSLYLQMNSLRAEDTAVYYCARDASWGLIQGLDSWGQGTLVTVSS VL: DIQMTQSPSSLSASVGDRVTITCRASQSISSYLNWYQQEPGKAPKLLIYDASSLQSGVPSRFSGGGSGTDFTLTISSLQPEDFAAYYCQQSYSTPYTFGQGTKVDIK |
| 50 | 항-VEGF 단일클론 인간항체 7D2 (IgG형) (antibody, V domains shown) VH: QMQLVQSGGGLVQPGGSLRLSCAASGFTFSSFEMNWVRQAPGKGLEWLSYISNSGSTIYYADSVKGRFTISRDNAKNSLYLQMNSLRAEDTAVYYCARDSRYYGIHGMDVWGQGTTITVSS VL: DIQMTQSPSSLSASVGDRVTITCRASQTISTYLNWYQQKPGKAPKLLIYAASSLQSGVPSRFSGSGSGTDFTLTISSLQPEDFATYYCQQSSSTPRTFGQGTRLEIK |
